Reference: PMC3276543, “Structural Basis of Transcriptional Gene Silencing Mediated by Arabidopsis MOM1” (PLoS Genetics, 2012)

Target: the molecule itself
Test: crystal structure; hanging drop vapor diffusion at 4°C, 0.1 M Tris pH 8.5, 0.3 M magnesium formate dihydrate; SAD phasing with seleno-methionine protein; native data to 3.2 Å

B1: MOM1 fragment corresponding to amino acid positions 1700 to 1814 (CMM2-containing protein fragment) (domain or fragment, Arabidopsis thaliana, UniProt Q9M658 1700-1814, looked up)
chain: HSAGVTALVPSLLNNGTEQIAVQPVPQIPFPVFNDPFLHELEKLRRESENSKKTFEEKKSILKAELERKMAEVQAEFRRKFHEVEAEHNTRTTKIEKDKNLVIMNKLLANAFLSK
notes: MORPHEUS' MOLECULE1 (MOM1), Arabidopsis thaliana, protein of 2001 amino acids, residues 1700-1814; residues 1729-1811 are ordered in the crystal; A seleno-methionine-containing form (E. coli strain 834) was used for phasing only; the 3.2 A data set is of the native protein; also called CMM2 protein fragment; CMM2 domain
**Q.** B1 was tested. Which “stoichiometry N” value did it give?
**A.** 2
